# B1: long isoform of Sox5 (natural protein)
# chain: not shown
# Target: the molecule itself
# Experiment: native gel or EMSA
protein,measurement,value
B1,stoichiometry N,2
